Assay results as given in publication PMC12948240.

What was measured:
[1] = PES1 IP, HA-Ub blot, MG132, HEK293T; details: glycan lost; control: FOXK1 WT, PFOS-treated
immunoblot, HEK293T = details: glycan lost; control: FOXK1 WT, PFOS-treated
[2] = cycloheximide chase, PES1 immunoblot, HEK293T; details: glycan lost; control: FOXK1 WT

B1: forkhead box k1 (FOXK1): FOXK1 T573A (protein)
parent chain: MAEVGEDSGARALLALRSAPCSPVLCAAAAAAAFPATTSPPPPAQPPPGPPALPAEPGPGPVPSTVATATTTAPALVAAAAASVRQSPGPALARLEGREFEFLMRQPSVTIGRNSSQGSVDLSMGLSSFISRRHLQLSFQEPHFYLRCLGKNGVFVDGAFQRRGAPALQLPQQCTFRFPSTAIKIQFTSLYHKEEAPASPLRPLYPQISPLKIHIPEPDLRSLVSPIPSPTGTISVPNSCPASPRGAGSSSYRFVQNVTSDLQLAAEFAAKAASEQQADASGGDSPKDESKPPYSYAQLIVQAISSAQDRQLTLSGIYAHITKHYPYYRTADKGWQNSIRHNLSLNRYFIKVPRSQEEPGKGSFWRIDPASEAKLVEQAFRKRRQRGVSCFRTPFGPLSSRSAPASPTHPGLMSPRSSGLQTPECLSREGSPIPHDPDLGSKLASVPEYRYSQSAPGSPVSAQPVIMAVPPRPSNLVAKPVAYMPASIVTSQQPSGHAIHVVQQAPTVTMVRVVTTSANSANGYILASQGSTGTSHDTAGTAVLDLGNEARGLEEKPTIAFATIPAASRVIQTVASQMAPGVPGHTVTILQPATPVTIGQHHLPVRAVTQNGKHAVPTNSLTGNAYALSSPLQLLAAQASSSTPVVITRVCEVGPEEPAAAVSVAANAAPTPAASTTTSASSSGEPEVKRSRVEEPGGTATTQPTAMAATGPQGPGTGE
- other: PES1 ubiquitination [1]: increases
- other: PES1 protein level (immunoblot, HEK293T): decreases
- other: PES1 degradation [2]: increases
